Assays:
CD3ε = test: SPR
[1] = target: T1, recombinant PD-L1 protein (#10084-HNAH, Sino Biological) (UniProt Q9NZQ7 19-290); test: SPR; heterogeneous ligand fit, KD1
[2] = target: T1, recombinant PD-L1 protein (#10084-HNAH, …); test: SPR; heterogeneous ligand fit, KD2 (second site)

T1 sequence (Q9NZQ7 19-290): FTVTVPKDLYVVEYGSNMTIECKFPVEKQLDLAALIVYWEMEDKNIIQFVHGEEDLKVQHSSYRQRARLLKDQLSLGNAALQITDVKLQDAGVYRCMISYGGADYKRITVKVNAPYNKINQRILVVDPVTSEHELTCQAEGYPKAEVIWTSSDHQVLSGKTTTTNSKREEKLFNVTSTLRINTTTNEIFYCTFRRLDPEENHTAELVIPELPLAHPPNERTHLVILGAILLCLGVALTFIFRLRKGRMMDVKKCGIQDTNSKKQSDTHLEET

Kd (CD3ε): 2.48 nM
Kd [1]: 9.86 nM
Kd [2]: 0.00205 nM
B1: recombinant Nb-BiTE (PD-L1/CD3ε Nb-BiTE) (bispecific antibody)
chain: HVQLVESGGGLVQPGGSLRLSCAASGFTFSSKAMSWVRQAPGKGLDWVSTINSGGGNTYYSDSVKGRFTISRDNAKNTLYLQLNSLKTEDTAMYYCSRCSDIYCGGQYTYRGQGTLVTVSSGGGGSGGGGSGGGGSEVQLVESGGGLVQPGGSLRLSCVASGFTFSSIGMSWVRQAPGKGLEWVSGLNPVGSHTGYADSVKGRFTISRDNAKNTLHLQLNSLKTEDTAMYYCQRGYTCSGDLCERGQGTQVTVSSGGGGSGGGGSGGGGSHVQLVESGGGSVQAGGSLRLSCTVSGVIFKNEYMGWFRQAPGKEREGVAAASPGGTITYYGDSVKGRFTISRDNAKNTVYLQMNRLKPEDTAMYYCALDPSTTSWSIIRHGPSLWRYSGRGTQVTVSS

— article PMC10265101 (2023)
